Test results taken from patent publication US20150266962A1 (Pfizer, published 2015).
Blank lines part the entries; values can stand above or below the binder they belong to.

Columns and labels:
[1] = biological target: T1, cynomolgus monkey IL-13-Rα2 ECD/TM domain with C-terminal Flag tag, on transfected HEK293 cells (cynomolgus monkey, UniProt Q14627 27-363 (human entry)); experiment: FACS on HEK293 cells transfected with cyno-IL-13-Rα2 (given as ED50)
T1 construct: also called cyno-IL-13-Rα2; cyno IL-13Rα2; not shown: Flag tag at the C-terminal end
T1 chain: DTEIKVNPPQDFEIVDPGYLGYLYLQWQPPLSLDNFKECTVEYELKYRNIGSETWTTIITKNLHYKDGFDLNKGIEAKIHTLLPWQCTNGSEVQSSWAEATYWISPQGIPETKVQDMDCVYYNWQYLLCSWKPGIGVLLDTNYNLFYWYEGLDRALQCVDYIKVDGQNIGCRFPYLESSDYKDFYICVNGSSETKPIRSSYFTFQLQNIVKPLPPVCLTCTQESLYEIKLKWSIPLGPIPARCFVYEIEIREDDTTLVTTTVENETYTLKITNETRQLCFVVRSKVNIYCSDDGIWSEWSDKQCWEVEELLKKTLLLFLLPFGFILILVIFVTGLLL
Description: The ECD/TM domain of cyno IL-13-Rα2 fused with Flag tag at the C-terminal end was cloned into the pSMED2 expression vector. HEK293 suspension cells were transiently transfected with cyno-IL-13-Rα2 containing plasmid and pSMED2 vector (as a mock transfection). The cells were harvested 72 hours later and subjected to FACS analysis. 4 antibodies including ch07, ch08, hu08v1.0/1.0 and hu08v1.1/1.1 were tested. The binding on the cell surface cyno-IL-13-Rα2 was detected with R-Phycoerythrin-labeled goat anti-human or mouse IgG.

[2] = biological target: T2, recombinant human IL-13 receptor alpha 2 (hIL-13-Rα2) (human, UniProt Q14627 27-343); experiment: competition ELISA on hIL-13-Rα2, competitor biotinylated ch08
T2 construct: Recombinant soluble antigen coated on ELISA plates or used in Biacore; also called rec hIL-13Rα2; rhIL-13Rα2
T2 sequence (looked up): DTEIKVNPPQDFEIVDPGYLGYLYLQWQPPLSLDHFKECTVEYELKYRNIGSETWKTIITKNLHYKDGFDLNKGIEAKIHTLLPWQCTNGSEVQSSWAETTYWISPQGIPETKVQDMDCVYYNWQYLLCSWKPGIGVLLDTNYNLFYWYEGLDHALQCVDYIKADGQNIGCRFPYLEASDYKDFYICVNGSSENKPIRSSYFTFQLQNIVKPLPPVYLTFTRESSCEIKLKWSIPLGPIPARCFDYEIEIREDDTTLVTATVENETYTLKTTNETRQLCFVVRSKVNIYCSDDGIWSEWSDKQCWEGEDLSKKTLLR
Description: The binding properties of the cysteine mutants to hIL-13-Rα2 were evaluated by a standard ELISA and a competition ELISA. […] This conclusion was confirmed by a competition ELISA with biotinylated ch08.

[3] = biological target: T2, recombinant human IL-13 receptor alpha …; experiment: competition ELISA on coated recombinant hIL-13-Rα2, competitor biotin-ch08
Description: A competition ELISA was performed to assess whether hu08 1.0 and hu08 v1.1 compete with ch08 for IL-13-Rα2 binding. Recombinant hIL-13-Rα2 was coated onto 96-well plates at 50 ul of […] in PBS overnight at 4° C. Plates were then blocked and washed following standard ELISA protocol. A 3-fold serially diluted ch08, hu08 1.0 and hu08 v1.1, and negative control ch07 (2× final concentration) were mixed with biotinylated ch08 (2×EC₅₀). 50 μl of the antibody and biotin-ch08 mixture were added to the plate and incubated for 1 hour at room temperature. The amount of biotin-ch08 bound was detected by HRP conjugated streptavidin.

[4] = biological target: T2, recombinant human IL-13 receptor alpha …; experiment: standard ELISA on hIL-13-Rα2 (given as ED50)
[5] = biological target: T2, recombinant human IL-13 receptor alpha …; experiment: direct ELISA on coated recombinant hIL-13-Rα2
Description: Humanized hu08 binding to recombinant hIL-13-Rα2 was evaluated by a standard direct ELISA. Recombinant hIL-13-Rα2 was coated onto a 96-well plate. Serially diluted chimeric antibodies or humanized antibodies in combinations of heavy and light chains of versions 1.0 and 1.1 e.g. hu08 v1.0 HC/1.0 LC, hu08 v1.0 HC/v1.1 LC, hu08 v1.1 HC/v1.0 LC, and hu08 v1.1 HC/v1.1 LC, were added to the plate and incubated at room temperature for 1-2 hours. The binding was detected by HRP conjugated goat anti-human Ig Kappa.

[6] = biological target: T2, recombinant human IL-13 receptor alpha …; experiment: SPR Biacore T100, pH 6.0
Description: (§1) To assess the binding kinetics of the ch07 and ch08 antibodies, SPR (Surface Plasmon Resonance) experiments were conducted on a Biacore® T100 or T200 instrument using a Biacore® human Fab Capture Kit (GE Healthcare). All data was analyzed using the Biacore® T100 evaluation software version 2.0 with a 1:1 Langmuir binding model.

[7] = biological target: T2, recombinant human IL-13 receptor alpha …; experiment: SPR Biacore T100, pH 7.4
Description: as §1

[8] = biological target: T2, recombinant human IL-13 receptor alpha …; experiment: SPR Biacore T100, pH 7.4 (column head prints nM; kd/ka gives M); pH 7.4
Description: as §1

[9] = biological target: T2, recombinant human IL-13 receptor alpha …; experiment: direct ELISA on rhIL-13Rα2 (given as ED50)
[10] = biological target: T2, recombinant human IL-13 receptor alpha …; experiment: competition ELISA on plate (recombinant IL-13-Rα2), competitor biotinylated ch07
[11] = biological target: T2, recombinant human IL-13 receptor alpha …; experiment: direct ELISA on rhIL-13Rα2, purified protein (given as ED50)
[12] = biological target: T2, recombinant human IL-13 receptor alpha …; experiment: competition ELISA on plate, competitor biotinylated ch07, purified protein
IL-13 = biological target: T3, IL-13 (UniProt P35225 35-146, limits assumed); experiment: competition ELISA: IL-13 captured on an anti-Flag coated plate, constant amounts of IL-13 and biotinylated IL-13Rα2-Fc (the competitor), detected with streptavidin-HRP
T3 construct: also called IL-13 cytokine
Description: In order to assess whether ch07 and ch08 can neutralize IL-13 function, a competition ELISA was performed. An anti-Flag Ab was coated onto 96-well plates and incubated overnight at 4° C. Plates were then blocked and washed following standard ELISA protocol. […] 100 ul of the complex was added to the ELISA plate and incubated for 1 hour at room temperature. The amount of biotin-IL-13-Rα2 bound was detected by HRP conjugated streptavidin at 1:5000 for 1 hour.

T3 sequence (P35225 35-146 limits assumed): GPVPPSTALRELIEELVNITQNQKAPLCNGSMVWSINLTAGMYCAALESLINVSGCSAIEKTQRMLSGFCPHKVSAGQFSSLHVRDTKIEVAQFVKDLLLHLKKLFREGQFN

B1: humanized antibody hu08 v1.0 HC/v1.0 LC (antibody, IgG1)
heavy: not shown
light: DIQMTQSPSSLSASVGDRVTITCKASQDVGTAVAWYQQKPGKAPKLLIYSASYRSTGVPSRFSGSGSGTDFTLTISSLQPEDFATYYCQHHYSAPWTFGGGTKVEIKRTVAAPSVFIFPPSDEQLKSGTASVVCLLNNFYPREAKVQWKVDNALQSGNSQESVTEQDSKDSTYSLSSTLTLSKADYEKHKVYACEVTHQGLSSPVTKSFNRGEC
notes: Humanized IgG1/kappa; also called hu08 v1.0/1.0; hu08v1.0/1.0
- EC50 [1]: 1.96 nM
- IC50 [2]: 2.01 nM
- IC50 [3]: 2.12 nM
- EC50 [4]: 0.11 nM
- EC50 [5]: 0.175 nM
- koff [6]: 0.000234 s⁻¹
- kon [6]: 52900 M⁻¹ s⁻¹
- koff [7]: 0.000246 s⁻¹
- kon [7]: 97500 M⁻¹ s⁻¹
- Kd [8]: 2.52 nM

B2: hu07 heavy chain v1.5 / light chain v1.0 (antibody, IgG1, V domains shown)
VH: EVQLVESGGGLVQPGGSLRLSCAASGFSLTKYGVHWVRQAPGKGLEWVGVKWAGGSTDYNSALMSRFTISKDNAKNSLYLQMNSLRAEDTAVYYCARDHRDAMDYWGQGTLVTVSS
VL: DIQMTQSPSSLSASVGDRVTITCTASLSVSSTYLHWYQQKPGKAPKLLIYSTSNLASGVPSRFSGSGSGTDFTLTISSLQPEDFATYYCHQYHRSPLTFGGGTKVEIK
notes: hIgG1 constant region and hIg Kappa constant region; also called hu07v1.5/v1.0
- EC50 [9]: 0.754 nM
- IC50 [10]: 62 nM

B3: humanized antibody hu07 heavy chain v1.5 / light chain v1.7 (antibody, IgG1, V domains shown)
VH: EVQLVESGGGLVQPGGSLRLSCAASGFSLTKYGVHWVRQAPGKGLEWVGVKWAGGSTDYNSALMSRFTISKDNAKNSLYLQMNSLRAEDTAVYYCARDHRDAMDYWGQGTLVTVSS
VL: DIQMTQSPSSLSASVGDRVTITCTASLSVSSTYLHWYQQKPGSSPKLWIYSTSNLASGVPSRFSGSGSGTSYTLTISSLQPEDFATYYCHQYHRSPLTFGGGTKVEIK
notes: hIgG1/kappa; also called hu07Hv1.5/kv1.7
- EC50 [11]: 0.39 nM
- IC50 [12]: 7.7 nM

Second part, the binder after the results:

- EC50 [1]: 2.14 nM
- IC50 [3]: 3.16 nM
- EC50 [5]: 0.198 nM
B4: humanized antibody hu08 v1.1 HC/v1.1 LC (antibody, IgG1, V domains shown)
VH: EVQLVESGGGLVQPGGSLRLSCAASGFTFSRNGMSWVRQTPDKRLEWVATVSSGGSYIYYADSVKGRFTISRDNAKNSLYLQMSSLRAEDTAVYYCARQGTTALATRFFDVWGQGTLVTVSS
VL: DIQMTQSPSSLSASVGDRVTITCKASQDVGTAVAWYQQIPGKAPKLLIYSASYRSTGVPDRFSGSGSGTDFSFIISSLQPEDFATYYCQHHYSAPWTFGGGTKVEIK
notes: hIgG1 constant region and hIgKappa constant region; also called hu08 v1.1/1.1; hu08v1.1/1.1

- IC50 (read off the curve) (IL-13): ~0.1 nM
B5: naked IL-13Rα2 (positive control competitor) (receptor, not shown: a dimerising Fc or GST; large carriers; small tags and cut ends)
chain: DTEIKVNPPQDFEIVDPGYLGYLYLQWQPPLSLDHFKECTVEYELKYRNIGSETWKTIITKNLHYKDGFDLNKGIEAKIHTLLPWQCTNGSEVQSSWAETTYWISPQGIPETKVQDMDCVYYNWQYLLCSWKPGIGVLLDTNYNLFYWYEGLDHALQCVDYIKADGQNIGCRFPYLEASDYKDFYICVNGSSENKPIRSSYFTFQLQNIVKPLPPVYLTFTRESSCEIKLKWSIPLGPIPARCFDYEIEIREDDTTLVTATVENETYTLKTTNETRQLCFVVRSKVNIYCSDDGIWSEWSDKQCWEGEDLSKKTLLR
